Numbering of substitutions follows the chain as printed. Blank lines part the entries; values can stand above or below the binder they belong to.
Target: T1, Full-length human CTGF (human, UniProt P29279 27-349)
T1 construct: Corresponds to NCBI NP_001892.1 with the signal peptide omitted; purchased from R&D Systems; also called hCTGF full length; full length CTGF
T1 sequence: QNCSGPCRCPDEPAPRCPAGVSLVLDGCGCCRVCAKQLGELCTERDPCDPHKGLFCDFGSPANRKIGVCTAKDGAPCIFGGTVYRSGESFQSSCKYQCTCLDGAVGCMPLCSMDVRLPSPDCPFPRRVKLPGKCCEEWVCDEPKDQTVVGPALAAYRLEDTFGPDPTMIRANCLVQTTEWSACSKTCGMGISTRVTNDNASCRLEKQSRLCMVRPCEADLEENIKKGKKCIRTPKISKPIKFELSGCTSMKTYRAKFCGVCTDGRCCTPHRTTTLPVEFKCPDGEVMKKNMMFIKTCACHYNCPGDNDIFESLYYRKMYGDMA
Experiment: SPR, full length CTGF

Kd: 0.21 nM
B1: A9 (antibody, human IgG1, kappa, L234A L235A)
light: VVMTQTPLSLSVSLGDQASISCKSSQSIVHYNEKTYLEWYLQKPGQSPQLLIYKVSSRASGVPDRFSGSGSGTDFTLKISRVEAEDLGVYYCFQGSHFPLTFGQGTKLEIKRTVAAPSVFIFPPSDEQLKSGTASVVCLLNNFYPREAKVQWKVDNALQSGNSQESVTEQDSKDSTYSLSSTLTLSKADYEKHKVYACEVTHQGLSSPVTKSFNRGEC
heavy: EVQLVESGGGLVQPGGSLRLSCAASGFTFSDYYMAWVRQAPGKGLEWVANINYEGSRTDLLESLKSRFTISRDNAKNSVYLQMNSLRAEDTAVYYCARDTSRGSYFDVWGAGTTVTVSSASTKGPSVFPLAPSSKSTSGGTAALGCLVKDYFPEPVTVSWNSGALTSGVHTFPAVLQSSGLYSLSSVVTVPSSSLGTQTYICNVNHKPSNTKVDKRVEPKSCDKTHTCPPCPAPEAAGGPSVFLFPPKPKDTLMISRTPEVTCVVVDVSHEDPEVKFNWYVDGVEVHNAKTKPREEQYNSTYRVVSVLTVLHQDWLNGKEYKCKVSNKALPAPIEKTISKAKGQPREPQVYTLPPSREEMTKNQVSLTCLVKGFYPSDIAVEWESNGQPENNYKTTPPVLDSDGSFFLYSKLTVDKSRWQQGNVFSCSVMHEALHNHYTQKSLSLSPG

Kd: 0.17 nM
B2: A11 (antibody, human IgG1, kappa, L234A L235A)
light: B1 light
heavy: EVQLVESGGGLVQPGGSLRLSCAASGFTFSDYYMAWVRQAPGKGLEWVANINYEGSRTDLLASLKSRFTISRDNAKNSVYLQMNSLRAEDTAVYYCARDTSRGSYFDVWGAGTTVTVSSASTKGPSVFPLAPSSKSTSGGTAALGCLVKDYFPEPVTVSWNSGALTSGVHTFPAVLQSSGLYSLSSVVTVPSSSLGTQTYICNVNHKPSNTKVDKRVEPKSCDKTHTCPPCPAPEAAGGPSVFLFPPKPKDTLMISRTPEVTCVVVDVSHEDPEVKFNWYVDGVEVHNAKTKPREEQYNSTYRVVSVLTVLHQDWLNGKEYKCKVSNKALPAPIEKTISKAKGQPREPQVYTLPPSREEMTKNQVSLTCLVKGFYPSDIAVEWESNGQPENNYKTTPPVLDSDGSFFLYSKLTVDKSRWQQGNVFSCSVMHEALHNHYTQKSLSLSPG

Kd: 0.16 nM
B3: A44 (antibody, human IgG1, kappa, L234A L235A, V domains shown)
VH: EVQLVESGGGLVQPGGSLRLSCAASGFTFSDYYMAWVRQAPGKGLEWVANINYYGSRTDLLASLKSRFTISRDNAKNSVYLQMNSLRAEDTAVYYCARDTSRGSYFDVWGAGTTVTVSS
VL: VVMTQTPLSLSVSLGDQASISCKSSQSIVHYNENTYLEWYLQKPGQSPQLLIYKVSSRASGVPDRFSGSGSGTDFTLKISRVEAEDLGVYYCFQGSHFPLTFGQGTKLEIKR

Kd: 0.19 nM
B4: A18 (antibody, human IgG1, kappa, L234A L235A, V domains shown)
VH: B3 VH with A62E
VL: B3 VL with E33G, N34K, A59F

Kd: 0.15 nM
B5: A25 (antibody, human IgG1, kappa, L234A L235A, V domains shown)
VH: B3 VH with Y54E, A62E
VL: B3 VL with E33G, N34K

Kd: 0.18 nM
B6: A20 (antibody, human IgG1, kappa, L234A L235A, V domains shown)
VH: B3 VH
VL: B3 VL with E33G, N34K, A59F

Kd: 0.23 nM
B7: A48 (antibody, human IgG1, kappa, L234A L235A)
light: B1 light with K34N
heavy: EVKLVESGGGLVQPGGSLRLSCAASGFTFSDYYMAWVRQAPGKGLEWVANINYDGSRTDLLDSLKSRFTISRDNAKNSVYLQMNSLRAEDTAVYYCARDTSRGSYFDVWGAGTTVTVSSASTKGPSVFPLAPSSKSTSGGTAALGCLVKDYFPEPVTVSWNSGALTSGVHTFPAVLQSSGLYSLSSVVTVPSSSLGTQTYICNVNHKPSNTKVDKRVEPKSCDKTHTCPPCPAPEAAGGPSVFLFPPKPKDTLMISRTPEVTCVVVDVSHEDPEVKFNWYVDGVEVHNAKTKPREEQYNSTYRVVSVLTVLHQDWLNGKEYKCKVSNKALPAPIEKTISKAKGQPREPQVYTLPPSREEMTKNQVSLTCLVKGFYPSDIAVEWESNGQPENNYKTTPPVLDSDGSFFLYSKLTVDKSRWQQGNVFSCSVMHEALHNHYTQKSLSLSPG

Kd: 0.26 nM
B8: A50 (antibody, human IgG1, kappa, L234A L235A, V domains shown)
VH: B3 VH with A62E
VL: B3 VL with S11P, K23R, S57N, A59F

Kd: 0.21 nM
B9: A22 (antibody, human IgG1, kappa, L234A L235A, V domains shown)
VH: B3 VH with Y54E, A62D
VL: B3 VL with E33G, N34K, A59F

Kd: 0.31 nM
B10: A54 (antibody, human IgG1, kappa, L234A L235A, V domains shown)
VH: B3 VH with Y54E, A62D
VL: B3 VL with S11P, K23R, S57N, A59F

Kd: 0.23 nM
B11: A23 (antibody, human IgG1, kappa, L234A L235A, V domains shown)
VH: B3 VH with Y54D, A62E
VL: B3 VL with E33G, N34K, A59F

Kd: 0.2 nM
B12: A46 (antibody, human IgG1, kappa, L234A L235A, V domains shown)
VH: B3 VH with Y54E, A62D
VL: B3 VL

binding result: no binding
B13: A37 (antibody, human IgG1, kappa, L234A L235A, V domains shown)
VH: B3 VH with Y54D, A62D
VL: B3 VL with A59F

binding result: no binding
B14: A35 (antibody, human IgG1, kappa, L234A L235A, V domains shown)
VH: B3 VH with Y54E
VL: B3 VL with A59F

Kd: 0.19 nM
B15: A10 (antibody, human IgG1, kappa, L234A L235A)
light: B1 light
heavy: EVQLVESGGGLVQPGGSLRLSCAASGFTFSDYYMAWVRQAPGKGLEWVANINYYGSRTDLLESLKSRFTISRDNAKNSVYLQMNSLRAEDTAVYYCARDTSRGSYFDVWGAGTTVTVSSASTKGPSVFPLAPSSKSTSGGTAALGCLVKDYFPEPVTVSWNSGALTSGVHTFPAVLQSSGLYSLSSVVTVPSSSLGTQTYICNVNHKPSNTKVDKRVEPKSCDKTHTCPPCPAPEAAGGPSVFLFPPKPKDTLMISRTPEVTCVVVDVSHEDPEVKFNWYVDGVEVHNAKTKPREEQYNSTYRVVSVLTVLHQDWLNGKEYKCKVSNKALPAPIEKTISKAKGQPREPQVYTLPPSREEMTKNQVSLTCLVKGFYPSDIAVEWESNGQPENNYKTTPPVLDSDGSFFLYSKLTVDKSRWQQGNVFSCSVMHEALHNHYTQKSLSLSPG

Kd: 0.25 nM
B16: A21 (antibody, human IgG1, kappa, L234A L235A)
light: B1 light with E33G, A59F
heavy: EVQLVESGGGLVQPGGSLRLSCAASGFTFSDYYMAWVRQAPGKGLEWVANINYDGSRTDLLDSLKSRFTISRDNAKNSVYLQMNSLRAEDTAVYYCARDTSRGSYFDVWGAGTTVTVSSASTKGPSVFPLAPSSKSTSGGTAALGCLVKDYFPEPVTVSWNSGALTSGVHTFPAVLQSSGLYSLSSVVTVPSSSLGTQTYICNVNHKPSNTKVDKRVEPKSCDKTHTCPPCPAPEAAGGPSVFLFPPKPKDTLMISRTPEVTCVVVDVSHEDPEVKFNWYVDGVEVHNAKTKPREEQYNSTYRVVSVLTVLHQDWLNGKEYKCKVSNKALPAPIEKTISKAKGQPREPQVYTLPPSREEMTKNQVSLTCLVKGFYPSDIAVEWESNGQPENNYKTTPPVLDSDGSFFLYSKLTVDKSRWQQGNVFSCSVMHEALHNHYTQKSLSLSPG

binding result: no binding
B17: A47 (antibody, human IgG1, kappa, L234A L235A, V domains shown)
VH: B3 VH with Y54D, A62E
VL: B3 VL

Kd: 0.26 nM
B18: A15 (antibody, human IgG1, kappa, L234A L235A)
light: B1 light
heavy: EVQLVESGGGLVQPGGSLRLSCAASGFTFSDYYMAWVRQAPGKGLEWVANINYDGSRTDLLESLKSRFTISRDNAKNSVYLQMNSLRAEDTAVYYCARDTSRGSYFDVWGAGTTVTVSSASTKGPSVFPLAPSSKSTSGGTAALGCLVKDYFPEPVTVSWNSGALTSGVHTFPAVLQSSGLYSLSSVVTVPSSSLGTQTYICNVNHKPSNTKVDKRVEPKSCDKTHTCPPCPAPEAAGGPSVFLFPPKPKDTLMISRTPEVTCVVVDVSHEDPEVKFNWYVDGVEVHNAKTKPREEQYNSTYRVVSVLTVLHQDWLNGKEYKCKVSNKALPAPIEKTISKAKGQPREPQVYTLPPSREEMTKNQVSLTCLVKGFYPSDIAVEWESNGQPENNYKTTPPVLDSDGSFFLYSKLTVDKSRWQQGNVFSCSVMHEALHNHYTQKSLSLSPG

Kd: 0.36 nM
B19: A53 (antibody, human IgG1, kappa, L234A L235A)
light: B1 light with S11P, K23R, K34N, S57N, A59F
heavy: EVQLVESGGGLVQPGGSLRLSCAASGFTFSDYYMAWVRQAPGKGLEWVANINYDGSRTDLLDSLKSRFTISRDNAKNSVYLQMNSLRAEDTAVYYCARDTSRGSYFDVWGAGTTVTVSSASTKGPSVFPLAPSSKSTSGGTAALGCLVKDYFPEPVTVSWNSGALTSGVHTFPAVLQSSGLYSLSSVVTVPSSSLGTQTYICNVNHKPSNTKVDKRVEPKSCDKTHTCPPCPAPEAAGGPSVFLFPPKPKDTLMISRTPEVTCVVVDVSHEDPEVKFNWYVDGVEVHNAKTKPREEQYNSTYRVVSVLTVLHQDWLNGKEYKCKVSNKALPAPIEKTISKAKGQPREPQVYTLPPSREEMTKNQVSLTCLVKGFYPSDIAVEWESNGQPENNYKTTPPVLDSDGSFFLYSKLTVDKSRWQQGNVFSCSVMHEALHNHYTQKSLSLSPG

Kd: 0.15 nM
B20: A42 (antibody, human IgG1, kappa, L234A L235A, V domains shown)
VH: B3 VH with A62E
VL: B3 VL

Kd: 0.17 nM
B21: A12 (antibody, human IgG1, kappa, L234A L235A)
light: B1 light
heavy: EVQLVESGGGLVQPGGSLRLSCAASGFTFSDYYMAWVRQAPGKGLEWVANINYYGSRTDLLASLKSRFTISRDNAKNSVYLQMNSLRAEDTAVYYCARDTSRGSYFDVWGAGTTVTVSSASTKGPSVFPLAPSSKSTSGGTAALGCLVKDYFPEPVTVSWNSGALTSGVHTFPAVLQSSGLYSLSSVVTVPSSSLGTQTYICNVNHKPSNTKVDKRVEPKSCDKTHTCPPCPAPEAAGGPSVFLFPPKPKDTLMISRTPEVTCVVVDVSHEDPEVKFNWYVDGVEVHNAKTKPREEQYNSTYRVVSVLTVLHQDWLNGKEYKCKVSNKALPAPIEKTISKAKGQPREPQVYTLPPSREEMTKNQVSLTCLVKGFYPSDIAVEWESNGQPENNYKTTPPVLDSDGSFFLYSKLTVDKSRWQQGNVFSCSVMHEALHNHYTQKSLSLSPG

Kd: 0.23 nM
B22: A24 (antibody, human IgG1, kappa, L234A L235A)
light: B1 light with E33G, A59F
heavy: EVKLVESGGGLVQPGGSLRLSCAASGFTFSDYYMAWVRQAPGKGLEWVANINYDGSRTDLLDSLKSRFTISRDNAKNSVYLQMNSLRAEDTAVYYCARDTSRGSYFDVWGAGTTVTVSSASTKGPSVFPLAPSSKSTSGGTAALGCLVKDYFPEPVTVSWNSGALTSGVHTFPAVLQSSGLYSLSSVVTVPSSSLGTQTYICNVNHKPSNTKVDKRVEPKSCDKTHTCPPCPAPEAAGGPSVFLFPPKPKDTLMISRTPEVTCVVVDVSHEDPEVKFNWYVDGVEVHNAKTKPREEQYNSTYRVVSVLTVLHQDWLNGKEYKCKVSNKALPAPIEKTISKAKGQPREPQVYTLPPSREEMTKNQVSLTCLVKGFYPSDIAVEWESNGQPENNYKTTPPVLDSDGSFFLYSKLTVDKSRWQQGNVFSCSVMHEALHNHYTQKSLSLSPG

Kd: 0.19 nM
B23: A41 (antibody, human IgG1, kappa, L234A L235A, V domains shown)
VH: B3 VH with Y54E, A62E
VL: B3 VL

Kd: 0.2 nM
B24: A17 (antibody, human IgG1, kappa, L234A L235A, V domains shown)
VH: B3 VH with Y54E, A62E
VL: B3 VL with E33G, N34K, A59F

Kd: 0.15 nM
B25: A43 (antibody, human IgG1, kappa, L234A L235A, V domains shown)
VH: B3 VH with Y54E
VL: B3 VL

Kd: 0.3 nM
B26: A49 (antibody, human IgG1, kappa, L234A L235A, V domains shown)
VH: B3 VH with Y54E, A62E
VL: B3 VL with S11P, K23R, S57N, A59F

Kd: 0.24 nM
B27: A16 (antibody, human IgG1, kappa, L234A L235A)
light: B1 light
heavy: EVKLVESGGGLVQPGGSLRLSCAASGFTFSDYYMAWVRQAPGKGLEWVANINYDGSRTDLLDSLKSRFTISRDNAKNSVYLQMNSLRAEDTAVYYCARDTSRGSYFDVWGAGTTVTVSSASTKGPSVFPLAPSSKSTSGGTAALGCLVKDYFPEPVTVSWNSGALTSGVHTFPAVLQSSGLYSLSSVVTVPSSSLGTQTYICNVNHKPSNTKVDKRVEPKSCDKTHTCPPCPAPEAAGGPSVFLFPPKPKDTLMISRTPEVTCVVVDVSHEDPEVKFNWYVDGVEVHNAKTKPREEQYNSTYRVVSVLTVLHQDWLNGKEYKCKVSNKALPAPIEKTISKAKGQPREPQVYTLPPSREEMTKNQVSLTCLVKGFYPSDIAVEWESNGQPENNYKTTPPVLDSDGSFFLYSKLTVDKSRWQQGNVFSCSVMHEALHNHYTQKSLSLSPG

binding result: no binding
B28: A34 (antibody, human IgG1, kappa, L234A L235A, V domains shown)
VH: B3 VH with A62E
VL: B3 VL with A59F

Kd: 0.27 nM
B29: A52 (antibody, human IgG1, kappa, L234A L235A, V domains shown)
VH: B3 VH
VL: B3 VL with S11P, K23R, S57N, A59F

binding result: no binding
B30: A45 (antibody, human IgG1, kappa, L234A L235A)
light: B1 light with K34N
heavy: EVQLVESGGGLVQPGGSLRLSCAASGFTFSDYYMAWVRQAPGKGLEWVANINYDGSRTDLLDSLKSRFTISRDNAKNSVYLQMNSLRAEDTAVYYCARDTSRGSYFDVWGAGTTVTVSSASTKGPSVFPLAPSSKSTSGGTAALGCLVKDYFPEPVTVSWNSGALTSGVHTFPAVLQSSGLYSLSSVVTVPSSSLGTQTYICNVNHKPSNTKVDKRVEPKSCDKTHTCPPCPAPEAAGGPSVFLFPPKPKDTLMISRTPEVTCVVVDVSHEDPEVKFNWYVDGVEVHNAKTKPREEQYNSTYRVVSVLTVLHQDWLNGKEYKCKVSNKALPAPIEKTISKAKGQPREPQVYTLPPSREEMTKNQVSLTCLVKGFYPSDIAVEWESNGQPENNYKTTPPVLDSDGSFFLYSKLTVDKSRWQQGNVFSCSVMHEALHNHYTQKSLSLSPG

Kd: 0.25 nM
B31: A51 (antibody, human IgG1, kappa, L234A L235A, V domains shown)
VH: B3 VH with Y54E
VL: B3 VL with S11P, K23R, S57N, A59F

Kd: 0.17 nM
B32: A19 (antibody, human IgG1, kappa, L234A L235A, V domains shown)
VH: B3 VH with Y54E
VL: B3 VL with E33G, N34K, A59F

binding result: no binding
B33: A36 (antibody, human IgG1, kappa, L234A L235A, V domains shown)
VH: B3 VH
VL: B3 VL with A59F

Kd: 0.22 nM
B34: A14 (antibody, human IgG1, kappa, L234A L235A)
light: B1 light
heavy: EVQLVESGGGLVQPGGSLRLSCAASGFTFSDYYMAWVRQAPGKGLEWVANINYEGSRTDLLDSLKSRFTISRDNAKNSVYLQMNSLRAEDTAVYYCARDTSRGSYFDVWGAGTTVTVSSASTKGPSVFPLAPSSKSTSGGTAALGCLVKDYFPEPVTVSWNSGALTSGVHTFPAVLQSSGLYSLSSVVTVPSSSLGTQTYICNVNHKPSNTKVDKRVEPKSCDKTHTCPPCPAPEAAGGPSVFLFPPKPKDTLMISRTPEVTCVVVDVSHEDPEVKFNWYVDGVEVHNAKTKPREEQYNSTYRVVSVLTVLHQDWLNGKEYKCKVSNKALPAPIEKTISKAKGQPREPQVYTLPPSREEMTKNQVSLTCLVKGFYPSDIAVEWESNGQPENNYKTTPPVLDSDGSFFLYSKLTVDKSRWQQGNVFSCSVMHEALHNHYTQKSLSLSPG

— patent US20250277020A1 (Boehringer Ingelheim, published 2025)
